Biological target: wsb1_human WSB1 (UniProt Q9Y6I7)
UniProt Q9Y6I7, sequence (Q9Y6I7 whole entry): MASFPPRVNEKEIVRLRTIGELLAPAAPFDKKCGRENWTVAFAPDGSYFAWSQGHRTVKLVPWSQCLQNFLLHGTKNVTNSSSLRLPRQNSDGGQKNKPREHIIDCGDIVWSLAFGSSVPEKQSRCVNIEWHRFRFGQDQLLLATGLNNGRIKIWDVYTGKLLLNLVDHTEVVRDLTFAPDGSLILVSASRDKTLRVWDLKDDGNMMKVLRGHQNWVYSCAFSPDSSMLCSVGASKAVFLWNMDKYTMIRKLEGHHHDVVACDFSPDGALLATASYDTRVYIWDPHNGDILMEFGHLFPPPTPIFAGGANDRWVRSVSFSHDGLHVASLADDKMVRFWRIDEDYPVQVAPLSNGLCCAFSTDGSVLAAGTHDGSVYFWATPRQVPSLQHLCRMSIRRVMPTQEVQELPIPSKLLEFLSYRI

With “Leucine-rich repeat serine/threonine-protein kinase 2 (Homo sapiens), Q5S007 G2019S” the “effect of a mutation on the interaction” value was “with no effect”.

Source: IntAct's records for PubMed 27273569
